Measured values reported in US20080176756A1.

Target: Cyclosporine 29-56-14 combinatorial mutant clone R2-9 (scFv on yeast)
Experiment: competition, flow cytometry on yeast; M17 0 to 5 uM against 0.5 nM bt-CsA; physiological or selection diluent

fold increase of IC50 compared to WT CsA 29-56-14: 30 to 100 fold
Substance: cyclosporine A metabolite M17 (peptide)
